# Assay results published in the supplement of paper PMC9170038.
# Tested on: MS2 coat protein
# Test: apparent KD of MS2 coat protein; designed switch direction (-1 OFF switch, 1 ON switch): -1; higher = weaker reporter binding
# Method in brief: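 For each design, the apparent KD is the median over clusters of curves fitted to normalised cluster fluorescence. Clusters held RNA switches with common flanks, transcribed on Illumina chips by stalled E. coli RNA polymerase. These were titrated with SNAP-549-labelled MS2 coat protein, doubling from 0.7 or 1.5 nM to 3 µM, without input, with 200 uM small-molecule ligand, or with an oligonucleotide input.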
# [1] = input ligand: microRNA oligo, concentration not stated
# [2] = Eterna round: R95, input ligand: FMN 200 uM
# [3] = Eterna round: R95, input ligand: microRNA oligo, concentration not stated
# [4] = Eterna round: R95, input ligand: none
Sequence,apparent KD of MS2 coat protein (input ligand: FMN 200 uM) [nM],apparent KD of MS2 coat protein [1] [nM],apparent KD of MS2 coat protein (input ligand: none) [nM],apparent KD of MS2 coat protein [2] [nM],apparent KD of MS2 coat protein [3] [nM],apparent KD of MS2 coat protein [4] [nM]
"ACGCAUUGCCUUUGGUAGUGCGUAACAUGAGGAUCACCCAUGUAGGAUAUGGUAGGCUUUGCUUACCAGAAGGACAUAAUAAUA [Mat - Exclusion NG 3 - Mod of JL - D1] (Eterna round: R96, puzzle: Exclusion NG 3)",54.2,22.7,26.6,–,–,–
"ACGCGUGGCUAGGAUAUGCAGCUAUCUGGCCAGGCAGAAGGAGCCACAUGAGGAUCACCCAUGUGGUGAUCCUC [eternacac ex6r4 sub3] (Eterna round: R97, puzzle: Exclusion 6)",12.1,–,11.9,–,–,–
"ACGGCUGAAGGAUAUGCAGUGACCACAAAGGUAUGACUAUCACAUGAGGAUCACCCAUGUAGAAGGUCGGCGCC [Eternabot (L2) Solution 29] (Eterna round: R97, puzzle: Exclusion 2)",13.6,–,14.4,–,–,–
"ACGGUGGUCCGAGAACAUGAGGAUCACCCAUGUGACAAAACCAAGGAUAUAGAAGGACCGCCCGACUAGAAGGUGGAAAGAAAA [Aresonen] (Eterna round: R96, puzzle: Exclusion NG 3)",101,73.3,117,–,–,–
"ACGUAGGUAGUUAGGAUAUUUAGUAUAUUUACAGUGAAGAAGGAACAUGAGGAUCACCCAUGUAGUGGUGUCCA [Eternabot (L1) Solution 68] (Eterna round: R97, puzzle: Brourd's mod of Exclusion 4)",1200,–,3180,–,–,–
"ACGUGAUAUCUGUCGGUGGACAUGAGGAUCACCCAUGUAAGCUUUUUGCCCGUCUUAUAACCCGGUGACAGACCUUC [Orlequla] (puzzle: Sensor v3, turn-off variant 1)",–,–,–,32.4,340,53.6
ACUAGAUGAGGAUAUGCAUAUUUUCGUGUUCUUCUAGGUUAACAUGAGGAUCACCCAUGUAGAAGGCGUCUAUU [Exclusion 2 - 23] (puzzle: Exclusion 2),–,–,–,–,18.6,–
"ACUCAGUGAGGAUAUCGCCAGAGAGCCACAACGGCCUCUGAUGAGAAGGCACAUGAGGAUCACCCAUGUAAGCA [EX4 C.2] (Eterna round: R97, puzzle: Exclusion 4)",45.4,–,252,–,–,–
"ACUCGACAUGAGGAUCACCCAUGUGAGGAUAUGGCCUGUAUGGCGUGAGCUGGCUAAAUCAGAAGGCGCGUGGG [salish99_ex1_r4_049] (Eterna round: R97, puzzle: Exclusion 1)",222,–,194,–,–,–
"ACUCGACAUGAGGAUCACCCAUGUGAGGAUAUGGCCUGUAUGGCGUGAGCUGGCUCAAUAAGAAGGCGCGUGGG [salish99_ex1_r4_051] (Eterna round: R97, puzzle: Exclusion 1)",235,–,188,–,–,–
"ACUCGACAUGAGGAUCACCCAUGUGAGGAUAUGGCCUGUUUGGCGUGAGCUGGCUCUGUCAGAAGGCGCGUGGG [salish99_ex1_r4_045] (Eterna round: R97, puzzle: Exclusion 1)",138,–,75.5,–,–,–
"ACUGGUCGAGGAUAUACGAUCGUGCUUCGGCACGUAAGAUCACAUGAGGAUCACCCAUGUAGAAGGCGACCAGU [Mod 4 - Jieux - Exclusion 2] (Eterna round: R97, puzzle: Exclusion 2)",246,–,35.3,–,–,–
"ACUUACUGAGGAUAUACAUAGAUUUACAUGAGGAUCACCCAUGUUCCUCUAUGUAUAAAUGUAGAAGGCAGAAGAU [Mat - Exclusion 5 - JL Mod - D55] (Eterna round: R97, puzzle: Exclusion 5)",64.2,–,17.8,–,–,–
"ACUUAUAGAGGAUAUACAGAAUAUUACAUGAGGAUCACCCAUGUUCUUCAAUGUAUAUAAGUAGAAGGCUAAGGAU [Mat - Exclusion 5 - JL Mod - D4] (Eterna round: R97, puzzle: Exclusion 5)",183,–,25.4,–,–,–
"ACUUAUAGAGGAUAUACAGAAUAUUACAUGAGGAUCACCCAUGUUCUUCAAUGUAUAUUUGUAGAAGGCUAAGGAA [EX-5 Malc#7] (Eterna round: R96, puzzle: Exclusion 5)",–,46.6,–,–,–,–
ACUUAUAGAGGAUAUACAGAAUAUUACAUGAGGAUCACCCAUGUUCUUCAAUGUAUAUUUGUAGAAGGCUAAGGAA [EX-5 Malc#7] (puzzle: Exclusion 5),–,–,–,192,45.6,40.6

Sequence,apparent KD of MS2 coat protein (input ligand: FMN 200 uM) [nM],apparent KD of MS2 coat protein [1] [nM],apparent KD of MS2 coat protein (input ligand: none) [nM],apparent KD of MS2 coat protein [2] [nM],apparent KD of MS2 coat protein [3] [nM],apparent KD of MS2 coat protein [4] [nM]
ACUUAUAGAGGAUAUACAGUAUAUUACAUGAGGAUCACCCAUGUUCUUCAAUGUAUAUAUGUAGAAGGCUAAGGAA [EX-5 Malc#6] (puzzle: Exclusion 5),–,–,–,–,183,–
"ACUUAUUGAGGAUAUACAGAAAAUUACAUGAGGAUCACCCAUGUUCUUCAAUGUAUAUAUGUAGAAGGCAGAAGAU [Mat - Exclusion 5 - JL Mod - D16] (Eterna round: R97, puzzle: Exclusion 5)",48.9,–,14.5,–,–,–
"ACUUAUUGAGGAUAUACAUUAAAUUACAUGAGGAUCACCCAUGUUCUUCAAUGUAUAUAUGUAGAAGGCAAAAGAG [Mat - Exclusion 5 - JL Mod - D22] (Eterna round: R97, puzzle: Exclusion 5)",26.5,–,14.4,–,–,–
"ACUUAUUGAGGAUAUACAUUAAAUUACAUGAGGAUCACCCAUGUUCUUCAAUGUAUAUAUGUAGAAGGCAGAAGAU [Mat - Exclusion 5 - JL Mod - D20] (Eterna round: R97, puzzle: Exclusion 5)",18.2,–,14.4,–,–,–
"ACUUAUUGAGGAUAUACAUUGAUUAACAUGAGGAUCACCCAUGUACAAACAUGUAUUUAUGUAGAAGGCAGAAGAA [JR_Ex5_Sub067] (Eterna round: R97, puzzle: Exclusion 5)",14.4,–,13.4,–,–,–
"ACUUUUAGUGGUCAAACUCACAUGAGGAUCACCCAUGUUUACAGGCUUAGGUGCUUGUCUUAUACUAAGGUUUACCG [Eternabot (L1) Solution 44] (Eterna round: R97, puzzle: Sensor, turn-off variant 1)",96.9,–,122,–,–,–
"AGAAAUGCCCAUGGCCACAAGCUCUUUGCUUGUCUUACUACAUGAGGAUCACCCAUGUAACAUGGGCUCCUGAUAAU [Been] (puzzle: Sensor v3, turn-off variant 2)",–,–,–,12.2,9.19,11.3
"AGAAAUGCCCAUGGCCGCAAGCUUUCUGCUUGUCUUACCACAUGAGGAUCACCCAUGUGACAUGGGCUCCUUAUAAU [Soralaer] (puzzle: Sensor v3, turn-off variant 2)",–,–,–,14.4,11,13.2
"AGAACUCUAGUAGGAUAUGUCGGAUAUGUUGUUGAGGUUCACCCAACGACGUCAAUGACAGAAGGACAGAAGGACUCCUGUUCA [pwkr exNG2 2xFMN 1xF5.8] (Eterna round: R96, puzzle: Exclusion NG 2)",1020,3670,711,–,–,–
"AGAAGUAGGAACCGAUCCUACAUGAGGAUCACCCAUGUAGCAAGACGUGCACGCGAAGCUCGUCAGACUACCAGAUG [salish99_TOv1_r3_021] (puzzle: Sensor v3, turn-off variant 1)",–,–,–,558,399,531
"AGAAGUAGUAACCGAUCCUACAUGAGGAUCACCCAUGUAGCGGGACGUGCACGCGAAGCUCGUCAGACUACCAGAUG [salish99_TOv1_r3_024] (puzzle: Sensor v3, turn-off variant 1)",–,–,–,27.2,26.7,28.6
"AGAGAAUACUCAGGAUAUCUGAAUAGAUAGAGAAGAGAAGGGAGACAUGAGGAUCACCCAUGUGAAGUCUUGAGGCUGCAUGGA [Prohibition 24 - Jieux - Exclusion NG 1] (Eterna round: R96, puzzle: Exclusion NG 1)",165,85.6,209,–,–,–
"AGAGAAUACUCAGGAUAUGUGAAUAGAUAGAGAACAGAAGGGAGACAUGAGGAUCACCCAUGUGAAGUCUUGAGGCUGCAUGGA [Prohibition 23 - Jieux - Exclusion NG 1] (Eterna round: R96, puzzle: Exclusion NG 1)",403,408,337,–,–,–
"AGAGAGUCAGGAUAUGACGAAGAGAACAUGAGGAUCACCCAUGUAGCUUCGUAAUCAUCGUCAGAAGGGACGAACU [JR_Ex5_Sub090] (Eterna round: R97, puzzle: Exclusion 5)",14.7,–,14.8,–,–,–
"AGAGUGCUGCGAGGAUAUACAUGAGGAUCACCCAUGUAAAUGUGUGAGGCUUUGCCUCACACAAUGUAGAAGGCGCAGUACUCA [Mat - Exclusion NG 2 - Mod of JL - D2] (Eterna round: R96, puzzle: Exclusion NG 2)",19,10.7,14.4,–,–,–
"AGAGUGCUGCGAGGAUAUACAUGAGGAUCACCCAUGUGGUCCUGUGAGGCAAAGCCUCACAGGAUGUAGAAGGCGCAGUACUCA [Mat - Exclusion NG 2 - Mod of JL - D46] (Eterna round: R96, puzzle: Exclusion NG 2)",57,14.2,19.9,–,–,–
